Where two headings read alike, the source gives them in different places.
Legend:
[1] = molecular target: T1, S1 RBD L452R E484Q (Acro) (SARS-CoV-2, UniProt P0DTC2 319-537); assay: Carterra SPR
T1 construct: domain: S1 RBD; also called SARS-COV-2 RBD India Var; L452R E484Q S1; India variant mutation L452R E484Q

[2] = molecular target: T2, Antibody 178-10_His CA_W152C_L452R_D614G (27081) (SARS-CoV-2, UniProt P0DTC2 14-685); assay: Carterra SPR
T2 construct: domain: S1; also called CA variant S1; California variant S1

[3] = molecular target: T3, Antibody 178-09_His B.1.1.7 (27080) (SARS-CoV-2, UniProt P0DTC2 14-685); assay: Carterra SPR
T3 construct: domain: S1; also called TB178-9

[4] = molecular target: T4, Antibody 178-08_His 501.V2 (27079) (SARS-CoV-2, UniProt P0DTC2 14-685); assay: Carterra SPR
T4 construct: domain: S1; also called TB178-8

[5] = molecular target: T5, SARS-CoV-2 S protein trimer (Kappa B.1.617.1 India variant) [SPN-C52Hr] (SARS-CoV-2, UniProt P0DTC2 16-1213); assay: binding kinetics, Carterra SPR
T5 construct: also called B.1.617.1 Kappa India variant

[6] = molecular target: T6, SARS-CoV-2 S protein trimer (Alpha B.1.1.7 UK variant) [SPN-C52H6] (SARS-CoV-2, UniProt P0DTC2 16-1213); assay: binding kinetics, Carterra SPR
T6 construct: also called B.1.1.7 Alpha UK variant

[7] = molecular target: T7, SARS-CoV-2 S protein trimer (Delta B.1.617.2 India variant) [SPN-C52He] (SARS-CoV-2, UniProt P0DTC2 16-1213); assay: binding kinetics, Carterra SPR
T7 construct: also called B.1.617.2 Delta India variant [SPN-C52he]

[8] = molecular target: SARS-CoV-2 S protein trimer (P.1 Gamma Brazil variant) [SPN-C52Hg] (SARS-CoV-2, UniProt P0DTC2 16-1213); assay: Carterra SPR
[9] = molecular target: T8, SARS-CoV-2 S1 [S1N-C52H4] (SARS-CoV-2, UniProt P0DTC2 16-685); assay: Carterra SPR
T8 construct: domain: S1

[10] = molecular target: T5, SARS-CoV-2 S protein trimer (Kappa …); assay: Carterra SPR
[11] = molecular target: SARS-CoV-2 S protein trimer [SPN-C52H7] (SARS-CoV-2, UniProt P0DTC2 16-1213); assay: Carterra SPR
[12] = molecular target: T6, SARS-CoV-2 S protein trimer (Alpha …); assay: Carterra SPR
[13] = molecular target: T9, SARS-CoV-2 S protein trimer (Beta B.1.351 SA variant) [SPN-C52Hk] (SARS-CoV-2, UniProt P0DTC2 16-1213); assay: Carterra SPR
T9 construct: also called B.1.351 Beta SA variant

[14] = molecular target: T7, SARS-CoV-2 S protein trimer (Delta …); assay: Carterra SPR
[15] = molecular target: SARS-CoV-2 S protein trimer [SPN-C52H9] (SARS-CoV-2, UniProt P0DTC2 16-1213); assay: binding kinetics, Carterra SPR
[16] = molecular target: T9, SARS-CoV-2 S protein trimer (Beta …); assay: binding kinetics, Carterra SPR
[17] = molecular target: T1, S1 RBD L452R E484Q (Acro); assay: Carterra SPR; remark: listed apart in the source
[18] = molecular target: T2, Antibody 178-10_His …; assay: Carterra SPR; remark: listed apart in the source
[19] = molecular target: T3, Antibody 178-09_His B.1.1.7 (27080); assay: Carterra SPR; remark: listed apart in the source
[20] = molecular target: T4, Antibody 178-08_His 501.V2 (27079); assay: Carterra SPR; remark: listed apart in the source

B1: 7-37 (VHH)
VHH: EVQLVESGGGLVQPGGSLRLSCAASGSTLSINAMGWFRQAPGKEREFVAGITRSGSVTNYADSVKGRFTISADNSKNTAYLQMNSLKPEDTAVYYCAADGVPEYSDYASGPVWGQGTLVTVSS
[1]
  Kd: 58.5 nM
[2]
  Kd: 45.1 nM
[3]
  Kd: 17.8 nM
[4]
  Kd: 123 nM
[5]
  Kd: 0.0171 nM
  koff: 1.67e-05 s⁻¹
  kon: 977000 M⁻¹ s⁻¹
[6]
  Kd: 0.0131 nM
  koff: 1.15e-05 s⁻¹
  kon: 875000 M⁻¹ s⁻¹
[7]
  Kd: ≤ 0.0102 nM
  koff: ≤ 1e-05 s⁻¹
  kon: 978000 M⁻¹ s⁻¹
[8]
  Kd: 0.0322 nM
  koff: 2.92e-05 s⁻¹
  kon: 906000 M⁻¹ s⁻¹
[9]
  Kd: 20.8 nM
  koff: 0.000651 s⁻¹
  kon: 31400 M⁻¹ s⁻¹
[10]
  Kd: 0.0276 nM
  koff: 2.38e-05 s⁻¹
  kon: 862000 M⁻¹ s⁻¹
[11]
  Kd: 0.026 nM
  koff: 1.77e-05 s⁻¹
  kon: 680000 M⁻¹ s⁻¹
[12]
  Kd: 0.0201 nM
  koff: 1.52e-05 s⁻¹
  kon: 757000 M⁻¹ s⁻¹
[13]
  Kd: 0.03 nM
  koff: 2.83e-05 s⁻¹
  kon: 944000 M⁻¹ s⁻¹
[14]
  Kd: 0.0191 nM
  koff: 1.62e-05 s⁻¹
  kon: 844000 M⁻¹ s⁻¹
[15]
  Kd: ≤ 0.0118 nM
  koff: ≤ 1e-05 s⁻¹
  kon: 844000 M⁻¹ s⁻¹
[16]
  Kd: 0.0224 nM
  koff: 2.3e-05 s⁻¹
  kon: 1.03e+06 M⁻¹ s⁻¹
[17]
  Kd: 58.5 nM
[18]
  Kd: 45.1 nM
[19]
  Kd: 17.8 nM
[20]
  Kd: 123 nM

B2: 7-14 (VHH)
VHH: EVQLVESGGGLVQPGGSLRLSCAASGSTFSINAMGWFRQAPGKEREFVAGISRGGTTNYADSVKGRFTISADNSKNTAYLQMNSLKPEDTAVYYCAADGVPEYSDYASGPVWGQGTLVTVSS
[1]
  Kd: 20.1 nM
[2]
  Kd: 43.1 nM
[3]
  Kd: 19.2 nM
[4]
  Kd: 16.9 nM
[5]
  Kd: ≤ 0.0083 nM
  koff: ≤ 1e-05 s⁻¹
  kon: 1.2e+06 M⁻¹ s⁻¹
[6]
  Kd: ≤ 0.00862 nM
  koff: ≤ 1e-05 s⁻¹
  kon: 1.16e+06 M⁻¹ s⁻¹
[7]
  Kd: ≤ 0.00994 nM
  koff: ≤ 1e-05 s⁻¹
  kon: 1.01e+06 M⁻¹ s⁻¹
[8]
  Kd: 0.0185 nM
  koff: 1.62e-05 s⁻¹
  kon: 877000 M⁻¹ s⁻¹
[9]
  Kd: 12.4 nM
  koff: 0.000464 s⁻¹
  kon: 37400 M⁻¹ s⁻¹
[10]
  Kd: 0.012 nM
  koff: 1e-05 s⁻¹
  kon: 835000 M⁻¹ s⁻¹
[11]
  Kd: ≤ 0.0142 nM
  koff: ≤ 1e-05 s⁻¹
  kon: 703000 M⁻¹ s⁻¹
[12]
  Kd: 0.0128 nM
  koff: 1e-05 s⁻¹
  kon: 782000 M⁻¹ s⁻¹
[13]
  Kd: 0.0171 nM
  koff: 1.6e-05 s⁻¹
  kon: 931000 M⁻¹ s⁻¹
[14]
  Kd: 0.0122 nM
  koff: 1e-05 s⁻¹
  kon: 818000 M⁻¹ s⁻¹
[15]
  Kd: ≤ 0.0105 nM
  koff: ≤ 1e-05 s⁻¹
  kon: 954000 M⁻¹ s⁻¹
[16]
  Kd: 0.00853 nM
  koff: 1.05e-05 s⁻¹
  kon: 1.23e+06 M⁻¹ s⁻¹
[17]
  Kd: 20.1 nM
[18]
  Kd: 43.1 nM
[19]
  Kd: 19.2 nM
[20]
  Kd: 16.9 nM
